Measured values published in patent US20260109758A1 (BIOSION, published 2026).

Legend:
[1] = target: T1, recombinant human IL4Rα-his (human, UniProt P24394 26-231, limits assumed, biotin-labeled in the capture ELISA); assay: competitive ELISA: coated human IL4Rα-his, antibody titrated; blocked ligand biotin human IL4
T1 construct: In-house made; not shown: His tag at the C-terminus
Protocol: Briefly, 100 μL human IL4Rα-his proteins (prepared in-house, IL4Rα of SEQ ID NO: 33 with C-terminal His tag) were coated on 96-well micro plates at 2 μg/mL in PBS overnight at 4° C. The next day, plates were washed with wash buffer (PBS+0.05% w/v Tween-20, PBST), and blocked with 5% w/v non-fatty milk in PBST for 2 hours at 37° C. Plates were then washed again using wash buffer. Serially diluted bispecific antibodies or the controls (starting at 100 nM with a 5-fold serial dilution) in 2.5% w/v non-fatty milk in PBST, 100 μL per well, were added to the IL4Rα bound plates, and incubated at 37° C. for 40 minutes. […] Plates were washed again using wash buffer. Thereafter, the plates were added with 100 μL/well of streptavidin conjugated HRP (1:10000 dilution in PBST buffer, Jackson Immunoresearch, Cat #016-030-084) and incubated for 40 minutes at 37° C. Plates were washed again using wash buffer. Finally, TMB was added and the reaction was stopped using 1M H₂SO₄, and the absorbance was read at 450 nm. Data was analyzed using Graphpad Prism and IC₅₀ values were reported.

[2] = target: T2, recombinant human TSLP-his (human, UniProt Q969D9 29-159, biotin-labeled in the ELISAs); assay: capture ELISA: antibody captured on anti-human IgG Fc F(ab')2, biotin human TSLP-his, SA-HRP
T2 construct: In-house made; not shown: His tag at the C-terminus
Protocol: Briefly, 96-well micro plates were coated with 100 μL 2 μg/mL AffiniPure F(ab′)₂ Fragment Goat Anti-Human IgG, Fey fragment specific (Jackson Immuno Research, Cat #109-006-008) in PBS and incubated overnight at 4° C. Plates were washed 4 times with wash buffer (PBS+0.05% Tween-20, PBST) and then blocked with 200 μL/well blocking buffer (5% w/v non-fatty milk in PBST) for 2 hours at 37° C. […] After the final wash, the plates were incubated with 100 μL/well TMB (Innoreagents). The reaction was stopped 15 minutes later at room temperature with 50 μL/well 1M H₂SO₄, and the absorbance of each well was read on a microplate reader using dual wavelength mode with 450 nm for TMB and 630 nm as the reference wavelength. The OD (450-630) values were plotted against antibody concentration. Data was analyzed using Graphpad Prism and EC₅₀ values were reported.

[3] = target: T2, recombinant human TSLP-his; assay: SPR Biacore; TSLP-his amine-coupled to CM5 chip, antibody as analyte; 1:1 Langmuir fit
Protocol: Un-reacted moieties on the biosensor surface were blocked with ethanolamine. Then, serially diluted purified bispecific antibodies and the controls (2-fold serial dilution in HBS-EP⁺ buffer starting at 100 nM) were respectively flowed onto the chip at a flow rate of 30 μL/min. The antigen-antibody association kinetics was followed for 4 minutes and the dissociation kinetics was followed for 13 minutes.

[4] = target: T1, recombinant human IL4Rα-his; assay: dual-binding ELISA: coated human IL4Rα-his, antibody titrated, detection with biotin human TSLP-his and SA-HRP; signal needs both antigens bound
Protocol: For the dual-binding ELISA, 96-well ELISA plates were firstly coated with 100 μL 1 μg/mL human IL4Rα-his protein (IL4Rα of SEQ ID NO: 33 with His tag at C terminus, prepared in-house) in PBS overnight at 4° C. ELISA plates were washed 4 times with wash buffer (PBS+0.05% Tween-20, PBST) and then blocked with 200 μL/well blocking buffer (5% w/v non-fatty milk in PBST) for 2 hours at 37° C. […] ELISA plates were washed again and incubated with SA-HRP (100 μl/well) for 40 minutes at 37° C. After the final wash, 100 μL/well TMB (Innoreagents) was added. The reaction was stopped 15 minutes later at room temperature with 50 μL/well 1M H₂SO₄, and the absorbance was read on a microplate reader using dual wavelength mode with 450 nm for TMB and 630 nm as the reference wavelength. The OD (450-630) values were plotted against antibody concentration. Data was analyzed using Graphpad Prism and EC₅₀ values were reported.

[5] = target: T1, recombinant human IL4Rα-his; assay: SPR Biacore T200; antibody captured on anti-human IgG CM5 chip, IL4Rα-his as analyte; 1:1 Langmuir fit
Procedure, shortened: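 Antibodies captured on anti-human IgG CM5 chip (bispecifics at 66.67 nM, controls 10 μg/mL), then serially diluted recombinant human IL4Rα-his (C-terminal His tag) in HBS EP flowed at 30 μL/min. Association and dissociation curves fit to 1:1 Langmuir model.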

| IC50 [1] [nM] | EC50 [2] [nM] | Kd [3] [nM] | koff [3] [s⁻¹] | kon [3] [M⁻¹ s⁻¹] | EC50 [4] [nM] | Kd [5] [nM] | koff [5] [s⁻¹] | kon [5] [M⁻¹ s⁻¹] | Binder |
| --- | --- | --- | --- | --- | --- | --- | --- | --- | --- |
| 0.449 | 0.106 | < 0.0145 | < 1e-05 | 692000 | 0.0779 | 2.93 | 0.000161 | 54900 | BSI-502-005 (bispecific antibody, human IgG1, kappa, hu1C5F12E9-V8 IgG with an anti-IL4R scFv (VH-VL) at the C-terminus of the heavy chain; AQQ and YTE already stand in the entry) heavy: QVQLVQSGAEVKKPGASVKVSCKASGYTFTTYWMHWVRQAPGQGLEWMGVIDPSDSDTTYNQKFKGRVTMTRDTSTSTVYMELSSLRSEDTAVYYCTRSLDGYYDYWGQGTLVTVSSASTKGPSVFPLAPSSKSTSGGTAALGCLVKDYFPEPVTVSWNSGALTSGVHTFPAVLQSSGLYSLSSVVTVPSSSLGTQTYICNVNHKPSNTKVDKKVEPKSCDKTHTCPPCPAPEAQGGPSVFLFPPKPKDTLYITREPEVTCVVVDVSHEDPEVKFNWYVDGVEVHNAKTKPREEQYNSTYRVVSVLTVLHQDWLNGKEYKCQVSNKALPAPIEKTISKAKGQPREPQVYTLPPSRDELTKNQVSLTCLVKGFYPSDIAVEWESNGQPENNYKTTPPVLDSDGSFFLYSKLTVDKSRWQQGNVFSCSVMHEALHNHYTQKSLSLSPGKGGGGSGGGGSEVQLVESGGGLVQPGGSLRLSCAASGFTFSTYGMSWVRQAPGKGLVWVATINSNGGSTSYPDSVKGRFTISRDNAKNTLYLQMNSLRAEDTAVYYCARFFRFRNAMDYWGQGTLVTVSSGGGGSGGGGSGGGGSGGGGSDIQMTQSPSSLSASVGDRVTITCRTSENIYSYLAWYQQKPGKAPKFLVYNAKTLAEGVPSRFSGSGSGTDFTLTISSLQPEDFATYYCQHYYGPPTWTFGQGTKVEIK light: DIQMTQSPSSLSASVGDRVTITCRPTENIYSYLAWYQQKPGKAPKLLIYFARTLAEGVPSRFSGSGSGTDFTLTISSLQPEDFATYYCQHHYGTPWTFGGGTKVEIKRTVAAPSVFIFPPSDEQLKSGTASVVCLLNNFYPREAKVQWKVDNALQSGNSQESVTEQDSKDSTYSLSSTLTLSKADYEKHKVYACEVTHQGLSSPVTKSFNRGEC |
| 0.212 | 0.0844 | 0.0084 | 3.87e-06 | 460000 | 0.0944 | 2.22 | 0.000399 | 180000 | BSI-502-007 (bispecific antibody, human IgG1, kappa, huC2C1A1A1-V15 IgG with an anti-TSLP scFv (VH-VL) at the N-terminus of the heavy chain; AQQ and YTE already stand in the entry) heavy: QVQLVQSGAEVKKPGASVKVSCKASGYTFTTYWMHWVRQAPGQGLEWMGVIDPSDSDTTYNQKFKGRVTMTRDTSTSTVYMELSSLRSEDTAVYYCTRSLDGYYDYWGQGTLVTVSSGGGGSGGGGSGGGGSGGGGSDIQMTQSPSSLSASVGDRVTITCRPTENIYSYLAWYQQKPGKAPKLLIYFARTLAEGVPSRFSGSGSGTDFTLTISSLQPEDFATYYCQHHYGTPWTFGGGTKVEIKGGGGSGGGGSEVQLVESGGGLVQPGGSLRLSCAASGFTFSTYGMSWVRQAPGKGLVWVATINSNGGSTSYPDSVKGRFTISRDNAKNTLYLQMNSLRAEDTAVYYCARFFRFRNAMDYWGQGTLVTVSSASTKGPSVFPLAPSSKSTSGGTAALGCLVKDYFPEPVTVSWNSGALTSGVHTFPAVLQSSGLYSLSSVVTVPSSSLGTQTYICNVNHKPSNTKVDKKVEPKSCDKTHTCPPCPAPEAQGGPSVFLFPPKPKDTLYITREPEVTCVVVDVSHEDPEVKFNWYVDGVEVHNAKTKPREEQYNSTYRVVSVLTVLHQDWLNGKEYKCQVSNKALPAPIEKTISKAKGQPREPQVYTLPPSRDELTKNQVSLTCLVKGFYPSDIAVEWESNGQPENNYKTTPPVLDSDGSFFLYSKLTVDKSRWQQGNVFSCSVMHEALHNHYTQKSLSLSPG light: DIQMTQSPSSLSASVGDRVTITCRTSENIYSYLAWYQQKPGKAPKFLVYNAKTLAEGVPSRFSGSGSGTDFTLTISSLQPEDFATYYCQHYYGPPTWTFGQGTKVEIKRTVAAPSVFIFPPSDEQLKSGTASVVCLLNNFYPREAKVQWKVDNALQSGNSQESVTEQDSKDSTYSLSSTLTLSKADYEKHKVYACEVTHQGLSSPVTKSFNRGEC |
| 0.236 | 0.0742 | 0.00758 | 4.43e-06 | 585000 | 0.107 | 3.15 | 0.000436 | 138000 | BSI-502-008 (bispecific antibody, human IgG1, kappa, huC2C1A1A1-V15 IgG with an anti-TSLP scFv (VL-VH) at the N-terminus of the heavy chain; AQQ and YTE already stand in the entry) heavy: DIQMTQSPSSLSASVGDRVTITCRPTENIYSYLAWYQQKPGKAPKLLIYFARTLAEGVPSRFSGSGSGTDFTLTISSLQPEDFATYYCQHHYGTPWTFGGGTKVEIKGGGGSGGGGSGGGGSGGGGSQVQLVQSGAEVKKPGASVKVSCKASGYTFTTYWMHWVRQAPGQGLEWMGVIDPSDSDTTYNQKFKGRVTMTRDTSTSTVYMELSSLRSEDTAVYYCTRSLDGYYDYWGQGTLVTVSSGGGGSGGGGSEVQLVESGGGLVQPGGSLRLSCAASGFTFSTYGMSWVRQAPGKGLVWVATINSNGGSTSYPDSVKGRFTISRDNAKNTLYLQMNSLRAEDTAVYYCARFFRFRNAMDYWGQGTLVTVSSASTKGPSVFPLAPSSKSTSGGTAALGCLVKDYFPEPVTVSWNSGALTSGVHTFPAVLQSSGLYSLSSVVTVPSSSLGTQTYICNVNHKPSNTKVDKKVEPKSCDKTHTCPPCPAPEAQGGPSVFLFPPKPKDTLYITREPEVTCVVVDVSHEDPEVKFNWYVDGVEVHNAKTKPREEQYNSTYRVVSVLTVLHQDWLNGKEYKCQVSNKALPAPIEKTISKAKGQPREPQVYTLPPSRDELTKNQVSLTCLVKGFYPSDIAVEWESNGQPENNYKTTPPVLDSDGSFFLYSKLTVDKSRWQQGNVFSCSVMHEALHNHYTQKSLSLSPG light: DIQMTQSPSSLSASVGDRVTITCRTSENIYSYLAWYQQKPGKAPKFLVYNAKTLAEGVPSRFSGSGSGTDFTLTISSLQPEDFATYYCQHYYGPPTWTFGQGTKVEIKRTVAAPSVFIFPPSDEQLKSGTASVVCLLNNFYPREAKVQWKVDNALQSGNSQESVTEQDSKDSTYSLSSTLTLSKADYEKHKVYACEVTHQGLSSPVTKSFNRGEC |
